Source: the supplement of paper PMC9112550, “Optimization of the antimicrobial peptide Bac7 by deep mutational scanning” (BMC Biology, 2022)

System: Escherichia coli TOP10
Test: shrunken log2 fold change of peptide-encoding DNA abundance (4.5 h post-induction vs induction); higher = less antimicrobial activity (less host growth inhibition)
Details: time post-induction: 4.5 h; library: site-saturation at positions 5, 18, 19, 20
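Further: peptides expressed intracellularly from a pBAD plasmid library in pooled LB shake-flask culture, induced with 0.3% L-arabinose, DNA abundance read by NGS, three biological replicates, DESeq2 with apeglm shrinkage.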

| Sequence | shrunken log2 fold change |
| --- | --- |
| RRIRDRPPRLPRPRPRPMRLPRP | 0.674 |
| RRIRDRPPRLPRPRPRPMTPPRP | -0.0805 |
| RRIRDRPPRLPRPRPRPNAQPRP | 0.325 |
| RRIRDRPPRLPRPRPRPNATPRP | 0.0821 |
| RRIRDRPPRLPRPRPRPNCAPRP | -0.0166 |
| RRIRDRPPRLPRPRPRPNEGPRP | -0.000567 |
| RRIRDRPPRLPRPRPRPNEQPRP | -0.0164 |
| RRIRDRPPRLPRPRPRPNFGPRP | 0.0243 |
| RRIRDRPPRLPRPRPRPNFMPRP | -0.316 |
| RRIRDRPPRLPRPRPRPNFSPRP | -0.0622 |
| RRIRDRPPRLPRPRPRPNGIPRP | 0.012 |
| RRIRDRPPRLPRPRPRPNGKPRP | -0.181 |
| RRIRDRPPRLPRPRPRPNHRPRP | -0.346 |
| RRIRDRPPRLPRPRPRPNIGPRP | -0.0132 |
| RRIRDRPPRLPRPRPRPNLIPRP | -0.15 |
| RRIRDRPPRLPRPRPRPNLMPRP | 0.0913 |
| RRIRDRPPRLPRPRPRPNLPPRP | -0.0303 |
| RRIRDRPPRLPRPRPRPNPHPRP | -0.247 |
| RRIRDRPPRLPRPRPRPNPQPRP | -0.19 |
| RRIRDRPPRLPRPRPRPNPYPRP | -0.558 |
| RRIRDRPPRLPRPRPRPNQRPRP | -0.264 |
| RRIRDRPPRLPRPRPRPNQVPRP | -0.329 |
| RRIRDRPPRLPRPRPRPNRAPRP | 0.563 |
| RRIRDRPPRLPRPRPRPNRQPRP | -0.0252 |
| RRIRDRPPRLPRPRPRPNRWPRP | 0.0049 |

| Sequence | shrunken log2 fold change |
| --- | --- |
| RRIRDRPPRLPRPRPRPNSIPRP | -0.211 |
| RRIRDRPPRLPRPRPRPNSPPRP | -0.0573 |
| RRIRDRPPRLPRPRPRPNWHPRP | 0.144 |
| RRIRDRPPRLPRPRPRPNWTPRP | 0.0279 |
| RRIRDRPPRLPRPRPRPNWYPRP | -0.476 |
| RRIRDRPPRLPRPRPRPPEAPRP | 0.479 |
| RRIRDRPPRLPRPRPRPPEWPRP | 0.557 |
| RRIRDRPPRLPRPRPRPPFQPRP | 0.193 |
| RRIRDRPPRLPRPRPRPPGEPRP | -0.0136 |
| RRIRDRPPRLPRPRPRPPGKPRP | 0.176 |
| RRIRDRPPRLPRPRPRPPGNPRP | 0.21 |
| RRIRDRPPRLPRPRPRPPGVPRP | 0.127 |
| RRIRDRPPRLPRPRPRPPGYPRP | 0.0954 |
| RRIRDRPPRLPRPRPRPPHDPRP | 2.35 |
| RRIRDRPPRLPRPRPRPPILPRP | -0.147 |
| RRIRDRPPRLPRPRPRPPLNPRP | 0.0565 |
| RRIRDRPPRLPRPRPRPPNEPRP | -0.0231 |
| RRIRDRPPRLPRPRPRPPPWPRP | 0.788 |
| RRIRDRPPRLPRPRPRPPQFPRP | -0.15 |
| RRIRDRPPRLPRPRPRPPQNPRP | 0.409 |
| RRIRDRPPRLPRPRPRPPSRPRP | -0.0515 |
| RRIRDRPPRLPRPRPRPPSSPRP | -0.0759 |
| RRIRDRPPRLPRPRPRPPTFPRP | -0.158 |
| RRIRDRPPRLPRPRPRPPVEPRP | -0.0332 |
| RRIRDRPPRLPRPRPRPPVHPRP | 0.105 |

| Sequence | shrunken log2 fold change |
| --- | --- |
| RRIRDRPPRLPRPRPRPPVQPRP | 0.104 |
| RRIRDRPPRLPRPRPRPPWAPRP | 0.311 |
| RRIRDRPPRLPRPRPRPPYYPRP | -0.474 |
| RRIRDRPPRLPRPRPRPQCPPRP | -0.00693 |
| RRIRDRPPRLPRPRPRPQDDPRP | 0.0352 |
| RRIRDRPPRLPRPRPRPQDWPRP | 0.324 |
| RRIRDRPPRLPRPRPRPQGNPRP | -0.0306 |
| RRIRDRPPRLPRPRPRPQGSPRP | -0.0152 |
| RRIRDRPPRLPRPRPRPQGVPRP | 0.0763 |
| RRIRDRPPRLPRPRPRPQGYPRP | -0.0816 |
| RRIRDRPPRLPRPRPRPQHFPRP | -0.422 |
| RRIRDRPPRLPRPRPRPQHKPRP | -0.217 |
| RRIRDRPPRLPRPRPRPQHLPRP | -0.444 |
| RRIRDRPPRLPRPRPRPQIFPRP | -0.00965 |
| RRIRDRPPRLPRPRPRPQKCPRP | 0.0207 |
| RRIRDRPPRLPRPRPRPQKLPRP | -0.307 |
| RRIRDRPPRLPRPRPRPQMNPRP | -0.315 |
| RRIRDRPPRLPRPRPRPQPAPRP | 0.559 |
| RRIRDRPPRLPRPRPRPQQCPRP | -0.00965 |
| RRIRDRPPRLPRPRPRPQQGPRP | -0.00207 |
| RRIRDRPPRLPRPRPRPQQSPRP | 0.0846 |
| RRIRDRPPRLPRPRPRPQQTPRP | -0.252 |
| RRIRDRPPRLPRPRPRPQQYPRP | -0.473 |
| RRIRDRPPRLPRPRPRPQRIPRP | -0.142 |
| RRIRDRPPRLPRPRPRPQRSPRP | 0.0502 |

| Sequence | shrunken log2 fold change |
| --- | --- |
| RRIRDRPPRLPRPRPRPQRYPRP | -0.0811 |
| RRIRDRPPRLPRPRPRPQVCPRP | 0.19 |
| RRIRDRPPRLPRPRPRPQVSPRP | 0.0416 |
| RRIRDRPPRLPRPRPRPQVTPRP | 0.0425 |
| RRIRDRPPRLPRPRPRPQWGPRP | -0.0612 |
| RRIRDRPPRLPRPRPRPQYLPRP | -0.248 |
| RRIRDRPPRLPRPRPRPQYTPRP | -0.31 |
| RRIRDRPPRLPRPRPRPRAFPRP | -0.2 |
| RRIRDRPPRLPRPRPRPRAPPRP | 0.359 |
| RRIRDRPPRLPRPRPRPRCFPRP | 1.66 |
| RRIRDRPPRLPRPRPRPRDMPRP | -0.0954 |
| RRIRDRPPRLPRPRPRPRGDPRP | 0.231 |
| RRIRDRPPRLPRPRPRPRGIPRP | -0.0372 |
| RRIRDRPPRLPRPRPRPRGVPRP | 0.393 |
| RRIRDRPPRLPRPRPRPRISPRP | 0.0345 |
| RRIRDRPPRLPRPRPRPRKPPRP | 0.39 |
| RRIRDRPPRLPRPRPRPRKVPRP | 0.187 |
| RRIRDRPPRLPRPRPRPRLRPRP | 0.122 |
| RRIRDRPPRLPRPRPRPRMYPRP | -0.154 |
| RRIRDRPPRLPRPRPRPRNEPRP | 0.00109 |
| RRIRDRPPRLPRPRPRPRNKPRP | -0.014 |
| RRIRDRPPRLPRPRPRPRNPPRP | -0.0578 |
| RRIRDRPPRLPRPRPRPRNSPRP | -0.394 |
| RRIRDRPPRLPRPRPRPRPIPRP | 0.429 |
| RRIRDRPPRLPRPRPRPRPNPRP | 0.323 |

| Sequence | shrunken log2 fold change |
| --- | --- |
| RRIRDRPPRLPRPRPRPRQIPRP | -0.233 |
| RRIRDRPPRLPRPRPRPRQVPRP | 0.262 |
| RRIRDRPPRLPRPRPRPRRMPRP | -0.152 |
| RRIRDRPPRLPRPRPRPRRWPRP | 0.453 |
| RRIRDRPPRLPRPRPRPRSSPRP | -0.0289 |
| RRIRDRPPRLPRPRPRPRTFPRP | -0.0632 |
| RRIRDRPPRLPRPRPRPRTPPRP | 0.17 |
| RRIRDRPPRLPRPRPRPRVFPRP | 0.485 |
| RRIRDRPPRLPRPRPRPRVPPRP | 0.523 |
| RRIRDRPPRLPRPRPRPRVTPRP | -0.0173 |
| RRIRDRPPRLPRPRPRPSCHPRP | -0.287 |
| RRIRDRPPRLPRPRPRPSDDPRP | 0.126 |
| RRIRDRPPRLPRPRPRPSHFPRP | -0.0338 |
| RRIRDRPPRLPRPRPRPSHQPRP | -0.211 |
| RRIRDRPPRLPRPRPRPSHTPRP | -0.436 |
| RRIRDRPPRLPRPRPRPSINPRP | -0.113 |
| RRIRDRPPRLPRPRPRPSIVPRP | -0.0831 |
| RRIRDRPPRLPRPRPRPSKNPRP | -0.106 |
| RRIRDRPPRLPRPRPRPSKSPRP | -0.223 |
| RRIRDRPPRLPRPRPRPSLQPRP | 0.073 |
| RRIRDRPPRLPRPRPRPSLWPRP | 1.09 |
| RRIRDRPPRLPRPRPRPSMHPRP | -0.176 |
| RRIRDRPPRLPRPRPRPSNIPRP | -0.182 |
| RRIRDRPPRLPRPRPRPSQAPRP | 0.136 |
| RRIRDRPPRLPRPRPRPSQLPRP | -0.633 |

| Sequence | shrunken log2 fold change |
| --- | --- |
| RRIRDRPPRLPRPRPRPSQMPRP | 0.0862 |
| RRIRDRPPRLPRPRPRPSQWPRP | -0.119 |
| RRIRDRPPRLPRPRPRPSRFPRP | 0.128 |
| RRIRDRPPRLPRPRPRPSSFPRP | -0.178 |
| RRIRDRPPRLPRPRPRPSSGPRP | -0.0626 |
| RRIRDRPPRLPRPRPRPSSKPRP | -0.0562 |
| RRIRDRPPRLPRPRPRPSTCPRP | -0.0465 |
| RRIRDRPPRLPRPRPRPSVLPRP | -0.246 |
| RRIRDRPPRLPRPRPRPSYEPRP | 0.175 |
| RRIRDRPPRLPRPRPRPTACPRP | 0.388 |
| RRIRDRPPRLPRPRPRPTEQPRP | -0.0141 |
| RRIRDRPPRLPRPRPRPTHCPRP | 0.0452 |
| RRIRDRPPRLPRPRPRPTKCPRP | -0.0929 |
| RRIRDRPPRLPRPRPRPTLTPRP | 0.717 |
| RRIRDRPPRLPRPRPRPTMGPRP | 1.05 |
| RRIRDRPPRLPRPRPRPTMTPRP | 0.334 |
| RRIRDRPPRLPRPRPRPTNGPRP | -0.0673 |
| RRIRDRPPRLPRPRPRPTNIPRP | -0.271 |
| RRIRDRPPRLPRPRPRPTNKPRP | -0.0409 |
| RRIRDRPPRLPRPRPRPTPPPRP | 0.49 |
| RRIRDRPPRLPRPRPRPTPWPRP | 0.66 |
| RRIRDRPPRLPRPRPRPTPYPRP | -0.13 |
| RRIRDRPPRLPRPRPRPTRKPRP | 0.385 |
| RRIRDRPPRLPRPRPRPTRNPRP | 0.174 |
| RRIRDRPPRLPRPRPRPTSLPRP | -0.0226 |
